Laboratory results taken from US20240110004A1 (Northwestern University, priority 2022, published 2024).
Where no end group is shown, it is not given here.

What was measured:
R6/2 mice = assay: Immunohistochemistry of DARPP-32 in striatum; format: in vivo, mouse; settings: over saline control
Source text: FIG. 33: Quantification of immunohistochemistry of DARPP32 in striatum of WT and R6/2 mice after treatment with PLP or HV3-TAT (immunohistochemistry stain not shown). p-value for: WT veh as compared to R62 veh: 0.0010; WT+P1 as compared to R62 veh: 0.0019; R62 veh as compared to R62+HV3-TAT: 0.0496; R62 veh as compared to R62+P1: 0.0104; R62+HV3-TAT as compared to R62+P1: 0.9593.
In vivo Efficacy Methods—Immunohistochemistry: Mice were anaesthetized with isoflurane and transcardially perfused with PBS. After post-fixed with 4% paraformaldehyde, brains were sliced and frozen. Brain sections (20 μm, coronal) were used for immunohistochemical localization of DARPP-32 (1:14000, Abcam) using the IHC Select HRP/DAB kit (Millipore). Imaging of slices was conducted on an all-in-one fluorescence microscope (Keyence). The same image exposure times and threshold settings were used for sections from all treatment groups. Quantitation of DARPP-32 immunostaining was conducted using NIH image J software.

[1] = molecular target: T1, interaction between VCP and mtHtt (Homo sapiens, UniProt P55072); assay: VCP binding assay: association of VCP to mtHtt by immunoprecipitation and western blot in HEK293 cells; format: cell-based; settings: HEK293 cells co-transfected with GFP-VCP and myc-Q73 FL, 3 μM, three doses
T1 construct: GFP; expressed in transfected cells; host or cells: HEK293
Method: Therefore, target engagement protein binding assays were conducted. HEK293 cells were cultured and plated one day before treatment. Cells were pre-treated with HV3-TAT or PLPs at 3 μM for 2 h. Cells were then co-transfected with GFP-VCP and myc-Q73 FL plasmids. Cells were treated with a second dose of peptide or PLPs 6 hours after transfection, and a final third dose of peptide or PLPs treatment was administered 24 hours after transfection. Cell total lysate was harvested 48 hours after transfection, and to confirm binding of PLPs to VCP in cells, association of VCP to mtHtt was quantified by immunoprecipitation (IP) followed by western blot upon treatment of HV3-TAT peptide and PLPs.

[2] = human, microsomes
Method: At each time point, 10 μL of supernatant was diluted with 90 μL of water with 0.1% trifluoroacetic acid.

T1 sequence (P55072 whole entry): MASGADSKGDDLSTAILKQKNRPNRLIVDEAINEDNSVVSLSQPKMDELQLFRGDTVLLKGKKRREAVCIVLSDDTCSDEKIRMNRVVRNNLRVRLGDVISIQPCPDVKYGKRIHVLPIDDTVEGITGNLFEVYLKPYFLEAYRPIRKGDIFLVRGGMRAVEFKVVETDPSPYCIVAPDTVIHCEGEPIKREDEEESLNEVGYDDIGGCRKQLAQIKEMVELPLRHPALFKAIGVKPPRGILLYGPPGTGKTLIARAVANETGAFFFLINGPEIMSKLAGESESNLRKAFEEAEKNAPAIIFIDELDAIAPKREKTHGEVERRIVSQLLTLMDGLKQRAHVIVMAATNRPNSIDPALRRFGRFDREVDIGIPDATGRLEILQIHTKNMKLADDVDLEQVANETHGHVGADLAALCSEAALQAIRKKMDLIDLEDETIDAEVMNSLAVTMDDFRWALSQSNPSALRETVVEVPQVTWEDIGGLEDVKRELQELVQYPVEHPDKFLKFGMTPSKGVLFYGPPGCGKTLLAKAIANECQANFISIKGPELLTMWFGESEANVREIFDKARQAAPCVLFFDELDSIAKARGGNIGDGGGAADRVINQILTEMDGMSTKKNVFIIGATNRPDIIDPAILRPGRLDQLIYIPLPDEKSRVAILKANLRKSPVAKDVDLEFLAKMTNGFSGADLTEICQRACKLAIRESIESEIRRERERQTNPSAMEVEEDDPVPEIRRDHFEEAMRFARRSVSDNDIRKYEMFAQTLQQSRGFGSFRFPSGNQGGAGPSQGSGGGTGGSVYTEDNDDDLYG
Source text for C3a: Immunocompatibility Methods: The interaction of a compound with blood will affect immune response, biodistribution, and clearance. The complement system is a key player in the innate immune response, and thus assaying the interaction between the complement system and PLPs serves as a litmus test to assess inherent inflammatory activity. Complement component C3a is implicated in all three of the complement activation pathways (classic, alternative, and lectin), thus a significant increase in C3a would warrant further investigation into specific activation of the innate and adaptive immune systems. […] In this assay, mouse weight was estimated as 35 g with an average blood volume of 2 mL for dosing preparation. Tested compounds were incubated at a ratio of 1:250 and 1:500 of compound to human serum for 4 hours prior to dilution and start of the assay. Using the C3a ELISA assay, and following manufacturer's protocol, samples were diluted with sample diluent and C3a control reconstituted with water. […] Serum samples and controls were incubated in C3a antibody coated wells for 2 hours with gentle shaking, before they were gently washed 3× with washing buffer, and primary antibody biotin solution administered to wells. […] After a final wash, developing substrate was added for 30 minutes before imaging on plate reader at 450 nM.
Method for red blood cells: Hemocompatibility Methods: Before in vivo studies could be conducted, hemocompatibility of the compounds was also assessed via activated clotting time (ACT) and hemolytic activity. Peptide-in-blood and polymer-in-blood dilutions were performed at volume ratios of 1:10000, 1:5000, 1:1000, 1:500, 1:250, and in some cases 1:100.
Regarding the hemolytic activity assay, the hemolytic assessments required 25 ml of whole human blood mixed with Na Citrate anticoagulant to be obtained. To prepare solution of erythrocytes, whole blood was centrifuged at 500 g for 5 minutes, and plasma aspirated. The same volume of plasma removed was replaced with 150 mM NaCl buffer (in Millipore water). Tube was inverted to mix, centrifuged at 500 g for 5 min, and supernatant removed, and this step repeated 2×. Finally, red blood cells (RBC) were resuspended in PBS. 10 μL of compound was added to 190 μL of diluted red blood cell erythrocyte solution in a 96 well plate (n=4). 20% Triton X acted as the positive control, and PBS acted as the negative control/vehicle. Plates were incubated at 37° C. for 1 hour. Plates were centrifuged for 5 min at 500×g to pellet intact erythrocytes. Using a multichannel pipet, 100 μl of supernatant was transferred from each well into a clear, flat-bottomed 96-well plate. Absorbance of supernatants was measured with a plate reader at 405 nM

Substance | DARPP-32 levels in striatum (immunohistochemistry) (R6/2 mice) | hemolytic activity (red blood cells) | association of VCP to mtHtt (VCP binding) [1] | C3a complement activation compared to the vehicle (C3a) | liver microsomal stability [2]
P1: PLP homopolymer having peptide side chains of SEQ ID: 1 (HVLVMSATRR), made by ROMP of norbornene peptide monomer M1 (also: side chains of polynorbornene homopolymer (PLP, ROMP of norbornene peptide monomer)) | significantly increased DARPP-32 levels | non-significant | exhibited evidence for binding | did not show a statistically significant difference | superior stability
peptide sequence HVLVMCAT (HV3) coupled to the cell penetrating, HIV-derived TAT peptide [HV3-TAT, reference compound] | – | – | exhibited evidence for binding | – | –
